This note sets out measurements from patent US20080226630A1 (SYMPHOGEN A S, published 2008).

B1: antibody 816 (clone 816) (antibody, human IgG1, kappa, V domains shown)
VH: EVQLLESGGGLVQPGGSLRLSCVASGFTFSTYAMTWVRQAPGKGLEWVSVIRASGDSEIYADSVRGRFTISRDNSKNTVFLQMDSLRVEDTAVYFCANIGQRRYCSGDHCYGHFDYWGQGTLVTVSS
VL: DIVMTQSPLSLPVTPGEPASISCRSSQSLLHSDGRYYVDWYLQKPGQSPHLLIYLASNRASGVPDRFTGSGSGTDFTLKISRVEAEDVGVYYCMQGLHTPWTFGQGTKVDIKR
B2: Fab fragment of antibody 810 (Fab, V domains shown)
VH: QVQLVQSGAEVKKSGSSVKVSCRASGGTFGNYAINWVRQAPGQGLEWVGRIIPVFDTTNYAQKFQGRVTITADRSTNTAIMQLSSLRPQDTAMYYCLRGSTRGWDTDGFDIWGQGTMVTVSS
VL: NIQMTQSPSAMSASVGDRVTITCRASQGISNYLVWFQQKPGKVPKRLIYAASSLQSGVPSRFSGSGSGTEFTLTISSLQPEDFATYYCLQHNISPYTFGQGTKLETKR
notes: also called Fab clone 810
B3: Fab fragment of antibody 818 (Fab, V domains shown)
VH: QVTLRESGPAVVKPTETLTLTCAFSGFSLNAGRVGVSWIRQPPGQAPEWLARIDWDDDKAFRTSLKTRLSISKDSSKNQVVLTLSNMDPADTATYYCARTQVFASGGYYLYYLDHWGQGTLVTVSS
VL: DIQMTQSPSSLSASVGDRVTITCRASQTIASYVNWYQQKPGRAPSLLIYAASNLQSGVPPRFSGSGSGTDFTLTISGLQPDDFATYYCQQSYSYRALTFGGGTKVEIKR
B4: Fab fragment of antibody 819 (Fab, V domains shown)
VH: QVQLQESGPGLVKPSQTLSLTCTVSSGAISGADYYWSWIRQPPGKGLEWVGFIYDSGSTYYNPSLRSRVTISIDTSKKQFSLKLTSVTAADTAVYYCARDLGYGGNSYSHSYYYGLDVWGRGTTVTVSS
VL: EIVLTQSPATLSLSPGERATLSCRASQSVSSSLAWYQQTPGQAPRLLIYDASYRVTGIPARFSGSGSGIDFTLTISSLEPEDFAVYYCQQRSNWPPGLTFGGGTKVEIKR
B5: Fab fragment of antibody 858 (Fab, V domains shown)
VH: QVQLVQSGAEVKKPGSSVKVSCKASGGSFDGYTISWLRQAPGQGLEWMGRVVPTLGFPNYAQKFQGRVTVTADRSTNTAYLELSRLTSEDTAVYYCARMNLGSHSGRPGFDMWGQGTLVTVSS
VL: DIQMTQSPSSVSASVGDRVTITCQASQDISNYLNWYQQKPGKAPKLLIFDATKLETGVPTRFIGSGSGTDFTVTITSLQPEDVATYYCQHFANLPYTFGQGTKLEIKR
notes: also called Fab clone 858
B6: Fab fragment of antibody 825 (Fab, V domains shown)
VH: QVQLVQSGAEVKKPGASVKVSCKVSGYTFTSNGLSWVRQAPGQGFEWLGWISASSGNKKYAPKFQGRVTLTTDISTSTAYMELRSLRSDDTAVYYCAKDGGTYVPYSDAFDFWGQGTMVTVSS
VL: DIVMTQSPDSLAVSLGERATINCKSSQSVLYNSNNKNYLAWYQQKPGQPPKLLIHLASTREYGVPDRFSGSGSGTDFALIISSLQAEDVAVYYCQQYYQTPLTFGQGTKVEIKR
B7: Fab fragment of antibody 735 (Fab, V domains shown)
VH: QVQLQESGPGLVKPSETLSLTCTVSNGAIGDYDWSWIRQSPGKGLEWIGNINYRGNTNYNPSLKSRVTMSLRTSTMQFSLKLSSATAADTAVYYCARDVGYGGGQYFAMDVWSPGTTVTVSS
VL: EIVLTQSPATLSLSPGERATLSCRASQSVNSHLAWYQQKPGQAPRLLIYNTFNRVTGIPARFSGSGSGTDFTLTISSLATEDFGVYYCQQRSNWPPALTFGGGTKVEIKR
notes: also called Fab clone 735
B8: Fab fragment of antibody 817 (Fab, V domains shown)
VH: QVQLVESGGGVVQPGRSLRLSCAASGFGFNTHGMHWVRQAPGKGLEWLSIISLDGIKTHYADSVKGRFTISRDNSKNTVFLQLSGLRPEDTAVYYCAKDHIGGTNAYFEWTVPFDGWGQGTLVTVSS
VL: EIVMTQSPATLSASPGERATLSCWASQTIGGNLAWYQQKPGQAPRLLIYGASTRATGVPARFSGSGSGTEFTLAISSLQSEDFAVYYCQQYKNWYTFGQGTKLELKR
notes: also called Fab clone 817
B9: Fab fragment of antibody 831 (Fab, V domains shown)
VH: QVQLVQSGAEVKKPGASVKVSCKASANIFTYAMHWVRQAPGQRLEWMGWINVGNGQTKYSQRFQGRVTITRDTSATTAYMELSTLRSEDTAVYYCARRASQYGEVYGNYFDYWGQGTLVTVSS
VL: DIQMTQSPSTLSASVGDRLTITCRASQNIYNWLAWYQQKPGKAPKLLIYDASTLESGVPSRFSGSGSGTEFTLTISSLQPDDFATYYCQQYNSLSPTFGQGTKVEIKR
notes: also called Fab clone 831
B10: Fab fragment of antibody 796 (Fab)
VH: QVQLVESGGGVVQPGRSLRLSCAASGFSFSHFGMHWVRQVPGKGLEWVAIISYDGNNVHYADSVKGRFTISRDNSKNTLFLQMNSLRDDDTGVYYCAKDDVATDLAAYYYFDVWGRGTLVTVSS
light: DIVMTQTPLSLSVTPGQPASISCRSSQSLLRSDGKTFLYWYLQKPGQSPQPLMYEVSSRFSGVPDRFSGSGSGADFTLNISRVETEDVGIYYCMQGLKIRRTFGPGTKVEIKRTVAAPSVFIFPPSDEQLKSGTASVVCLLNNFYPREAKVQWKVDNALQSGNSQESVTEQDSKDSTYSLSSTLTLSKADYEKHKVYACEVTHQGLSSPVTKSFNRGEC
notes: also called Fab clone 796
B11: Fab fragment of antibody 853 (Fab)
VH: EVQLVQSGAEVKKPGQSLKISCKTSGYIFTNYWIGWVRQRPGKGLEWMGVIFPADSDARYSPSFQGQVTISADKSIGTAYLQWSSLKASDTAIYYCARPKYYFDSSGQFSEMYYFDFWGQGTLVTVSS
light: EIVLTQSPGTLSLSPGERATLSCRASQSVSSNYLAWYQQKPGQAPRLLIYGASSRAAGMPDRFSGSGSGTDFTLTISRLEPEDFAVYYCQQYGNSPLTFGGGTEVEIKRTVAAPSVFIFPPSDEQLKSGTASVVCLLNNFYPREAKVQWKVDNALQSGNSQESVTEQDSKDSTYSLSSTLTLSKADYEKHKVYACEVTHQGLSSPVTKSFNRGEC
notes: also called Fab clone 853
B12: Fab fragment of antibody 838 (Fab)
VH: QVQLVESGGGVVQPGTSLRLSCAASGFTFSTFGMHWVRQAPGKGLEWVAVISYDGNKKYYADSVKGRFTISRDNSKNTLYLQVNSLRVEDTAVYYCAAQTPYFNESSGLVPDWGQGTLVTVSS
light: DIQMTQSPSSLSASVGDRVSITCRASQGISNYLAWYQQKPGKVPKLLIYAASTLQSGVPSRFSGSGSGTDFTLTISSLQPEDVATYYCQKYNSAPQTFGQGTKVEIKRTVAAPSVFIFPPSDEQLKSGTASVVCLLNNFYPREAKVQWKVDNALQSGNSQESVTEQDSKDSTYSLSSTLTLSKADYEKHKVYACEVTHQGLSSPVTKSFNRGEC
notes: also called Fab clone 838
B13: Fab fragment of antibody 859 (Fab)
VH: QVQLVESGGGVVQPGRSLRLSCAVSGSSFSKYGIHWVRQAPGKGLEWVAVISYDGSKKYFTDSVKGRFTIARDNSQNTVFLQMNSLRAEDTAVYYCATGGGVNVTSWSDVEHSSSLGYWGLGTLVTVSS
light: DIQMTQSPSSLSASVGDRVTITCRASQGIRNYLAWYQQKPGKVPKLLVFAASTLQSGVPSRFSGSGSGTDFTLTISSLQPEDVATYYCQRYNSAPLTFGGGTKVEIKRTVAAPSVFIFPPSDEQLKSGTASVVCLLNNFYPREAKVQWKVDNALQSGNSQESVTEQDSKDSTYSLSSTLTLSKADYEKHKVYACEVTHQGLSSPVTKSFNRGEC
notes: also called Fab clone 859
B14: Fab fragment of antibody 816 (Fab)
VH: EVQLLESGGGLVQPGGSLRLSCVASGFTFSTYAMTWVRQAPGKGLEWVSVIRASGDSEIYADSVRGRFTISRDNSKNTVFLQMDSLRVEDTAVYFCANIGQRRYCSGDHCYGHFDYWGQGTLVTVSS
light: DIVMTQSPLSLPVTPGEPASISCRSSQSLLHSDGRYYVDWYLQKPGQSPHLLIYLASNRASGVPDRFTGSGSGTDFTLKISRVEAEDVGVYYCMQGLHTPWTFGQGTKVDIKRTVAAPSVFIFPPSDEQLKSGTASVVCLLNNFYPREAKVQWKVDNALQSGNSQESVTEQDSKDSTYSLSSTLTLSKADYEKHKVYACEVTHQGLSSPVTKSFNRGEC
B15: Fab fragment of antibody 811 (Fab)
VH: QVQLVQSGAVVETPGASVKVSCKASGYIFGNYYIHWVRQAPGQGLEWMAVINPNGGSTTSAQKFQDRITVTRDTSTTTVYLEVDNLRSEDTATYYCARQRSVTGGFDAWLLIPDASNTWGQGTMVTVSS
light: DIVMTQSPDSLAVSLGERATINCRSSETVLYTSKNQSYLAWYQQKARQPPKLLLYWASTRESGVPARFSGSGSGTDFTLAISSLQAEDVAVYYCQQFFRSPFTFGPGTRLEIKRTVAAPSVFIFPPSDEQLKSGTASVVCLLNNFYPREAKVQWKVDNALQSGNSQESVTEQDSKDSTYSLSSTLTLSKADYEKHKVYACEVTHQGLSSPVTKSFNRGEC
notes: also called Fab clone 811

For one assay, the target named is T1, recombinant human fractalkine (CX3CL1; R&D systems) (human, UniProt P78423 25-100).
T1 sequence (looked up): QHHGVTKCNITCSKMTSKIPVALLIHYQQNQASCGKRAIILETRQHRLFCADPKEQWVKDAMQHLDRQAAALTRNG
Kind of assay: ELISA on recombinant human fractalkine. Background: In an ELISA, binding on a coated surface is turned into a signal by an enzyme label.
As to B1, the binding result is “no binding”.

A further assay deals with RSV protein F (recombinant or purified F protein) (human respiratory syncytial virus, …). Description: SPR Biacore 3000, Fab over amine-coupled recombinant protein F. On the technique in general: Surface plasmon resonance follows binding to a sensor surface in real time, without labels.
As to B2, the Kd – broadly, a measure of binding affinity in units of concentration – was 0.2 nM; the koff (usually the first-order rate constant of dissociation) was 0.000348 s⁻¹; the kon – broadly, the second-order rate constant of association – was 1.74e+06 M⁻¹ s⁻¹; the t1/2 stood at 33 min.

Take B3: the Kd stood at 0.115 nM, the dissociation rate constant (koff) was 2.2e-05 s⁻¹, the on-rate (kon) was 192000 M⁻¹ s⁻¹ and the t1/2 amounted to 530 min.

Regarding B4, the dissociation constant (Kd) came to 0.14 nM, the koff was 4.99e-05 s⁻¹, the kon was found to be 356000 M⁻¹ s⁻¹ and the t1/2 was determined as 230 min.

As for B5, the Kd was 0.007 nM, the koff worked out at 3.4e-06 s⁻¹, the kon was 497000 M⁻¹ s⁻¹ and the t1/2 worked out at 3400 min.

As to B6, the dissociation constant (Kd) came out at 0.195 nM, the dissociation rate constant (koff) worked out at 0.00015 s⁻¹, the on-rate (kon) was determined as 772000 M⁻¹ s⁻¹ and the t1/2 was 77 min.

B7: the Kd worked out at 0.226 nM, the koff worked out at 9.18e-05 s⁻¹, the association rate constant (kon) worked out at 407000 M⁻¹ s⁻¹ and the t1/2 was 130 min.

Take B8: the Kd turned out to be 0.82 nM, the koff came to 7.54e-05 s⁻¹, the kon worked out at 92000 M⁻¹ s⁻¹ and the t1/2 came to 150 min.

Turning to B9, the Kd was determined as 1.13 nM, the koff worked out at 0.00042 s⁻¹, the kon was 372000 M⁻¹ s⁻¹ and the t1/2 amounted to 28 min.

Another assay addresses T2, recombinant RSV protein G, G(B): residues 66-292 of strain 18537 (human respiratory syncytial virus …, UniProt P20896 66-292).
T2 construct: also called soluble recombinant G protein; recombinant protein G
T2 sequence: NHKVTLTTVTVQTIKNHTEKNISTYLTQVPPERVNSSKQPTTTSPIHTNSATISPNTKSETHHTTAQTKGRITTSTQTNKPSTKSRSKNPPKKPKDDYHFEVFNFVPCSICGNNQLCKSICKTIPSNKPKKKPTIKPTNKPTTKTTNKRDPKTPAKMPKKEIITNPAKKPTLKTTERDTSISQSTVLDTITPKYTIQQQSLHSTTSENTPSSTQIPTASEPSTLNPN
Description: SPR Biacore 3000, Fab over amine-coupled recombinant protein G.
As for B10, the dissociation constant (Kd) is 0.48 nM, the off-rate constant (koff) worked out at 0.000403 s⁻¹, the kon is 833000 M⁻¹ s⁻¹ and the t1/2 was 28.7 min.

For the molecule B11, the Kd amounted to 0.79 nM, the koff came out at 0.0014 s⁻¹, the on-rate (kon) is 1.77e+06 M⁻¹ s⁻¹ and the t1/2 came to 8.25 min.

Consider B12, for which the equilibrium dissociation constant (Kd) amounted to 0.19 nM, the koff turned out to be 5.06e-05 s⁻¹, the kon came out at 264000 M⁻¹ s⁻¹ and the t1/2 stood at 230 min.

As for B13, the Kd was found to be 0.12 nM, the dissociation rate constant (koff) turned out to be 4.63e-05 s⁻¹, the kon worked out at 380000 M⁻¹ s⁻¹ and the t1/2 turned out to be 250 min.

For B14, the equilibrium dissociation constant (Kd) is 0.09 nM, the koff came to 0.000178 s⁻¹, the on-rate constant (kon) worked out at 2.02e+06 M⁻¹ s⁻¹ and the t1/2 was 65 min.

For B15, the dissociation constant Kd was found to be 0.34 nM, the dissociation rate constant (koff) is 0.000171 s⁻¹, the kon worked out at 498000 M⁻¹ s⁻¹ and the t1/2 is 68 min.
